According to patent publication US20090175866A1, “TREATMENT OF B-CELL MALIGNANCIES” (priority 2004, published 2009):

What was measured:
FGFR3 [1] = target: T1, FGFR3 (Homo sapiens, UniProt P22607); assay: Affinity and Koff to FGFR3 measured by BIAcore; assay type: binding
FGFR3 [2] = target: T1, FGFR3; assay: FGFR3 domain specificity of binding
WT FGFR3 = target: T2, WT FGFR3 (Homo sapiens, UniProt P22607); assay: Viability of FGF-stimulated B9-FGFR3^WT cells; assay type: cell-based
T2 construct: expressed in transfected cells; host or cells: B9 cells
T2 sequence (P22607 23-806): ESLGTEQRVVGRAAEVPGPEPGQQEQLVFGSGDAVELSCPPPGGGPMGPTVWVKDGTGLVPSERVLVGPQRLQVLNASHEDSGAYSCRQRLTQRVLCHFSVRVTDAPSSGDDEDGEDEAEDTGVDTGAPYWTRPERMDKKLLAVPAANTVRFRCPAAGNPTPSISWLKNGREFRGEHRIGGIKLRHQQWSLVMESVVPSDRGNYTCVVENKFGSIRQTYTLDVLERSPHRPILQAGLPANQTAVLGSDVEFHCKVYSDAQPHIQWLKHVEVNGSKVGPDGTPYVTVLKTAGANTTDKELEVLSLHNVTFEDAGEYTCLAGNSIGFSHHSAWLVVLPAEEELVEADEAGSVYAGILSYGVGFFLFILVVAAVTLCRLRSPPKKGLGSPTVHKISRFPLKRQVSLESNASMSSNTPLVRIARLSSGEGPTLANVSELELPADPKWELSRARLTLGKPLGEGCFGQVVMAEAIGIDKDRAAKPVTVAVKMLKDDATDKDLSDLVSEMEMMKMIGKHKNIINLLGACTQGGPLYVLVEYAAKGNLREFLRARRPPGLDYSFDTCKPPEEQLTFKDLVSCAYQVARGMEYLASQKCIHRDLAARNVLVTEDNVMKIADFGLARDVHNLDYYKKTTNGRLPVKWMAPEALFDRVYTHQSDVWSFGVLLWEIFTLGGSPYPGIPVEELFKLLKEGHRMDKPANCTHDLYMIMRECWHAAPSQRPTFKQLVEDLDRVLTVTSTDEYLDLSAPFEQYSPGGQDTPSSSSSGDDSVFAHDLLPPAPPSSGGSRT
Protocol: FIG. 1B is a graph showing viability of B9-FGFR WT cells treated with different concentrations of PRO-001. The filled bars represent the control (no PRO-001). The dotted bars represent PRO-001 treated cells.
(§1) Non-transformed rat chondrocyte cell line expressing PGFR3 in an inducible manner (RCJ-FGFR3) has been described previously (Rauchenberger R. et al. J. Biol. Chem. 2003; 278:38194-205). Cells were maintained in α-Minimum Essential Media supplemented with 15% fetal calf serum (FCS), 2 mM L-Glutamine, 100 U/ml penicillin, 100 μg/ml streptomycin, 600 μg/ml G418 (Gibco BRL, Ontario, Canada), 2 μg/ml Tetracyclin (Sigma, Ontario, Canada), and 50 μg/ml HygromycinB (Gibco BRL). […]
(§2) Cell viability was assessed by 3-(4,5-dimethylthiazol)-2,5-diphenyl tetrazolium (MTT) or (2,3-bis(2-methoxy-4-nitro-5-sulphophenyl)-5-[(phenylamino) carbonyl]-2H-tetrazolium hydroxide (XTT) dye absorbance where indicated. Cells were seeded in 96-well plates at a density of 20,000 (FDCP-1 cells), 5,000 (B9 cells) or 25,000 cells (MM cell lines) per well in culture medium. Cells were incubated in the absence or presence of one of the following cytokines: 10 ng/ml FGF9 and 5 μg/ml heparin, 1% murine IL-6, 50 ng/ml IGF-1 or 50 ng/ml human IL-6 where indicated and increasing concentrations of PRO-001, control antibody (purified human Fab) or 100 nM PD173074. […]

FGFR3-F384L = target: T3, FGFR3-F384L (Homo sapiens, UniProt P22607, F384L); assay: FGF-stimulated growth of B9 cells expressing FGFR3 mutant F384L; assay type: cell-based
T3 construct: expressed in transfected cells; host or cells: B9 cells
T3 sequence (P22607 23-806 F384L): as the sequence (P22607 23-806) above, with F362L counted along it
Protocol: as §1, with “BRL). FGFR3 expression was induced by removal of tetracyclin and serum starvation.” for “BRL).”
as §2

FGFR1 = FGFR1 (Homo sapiens, UniProt P11362); assay: FGF-stimulated proliferation of FDCP-FGFR1 cells (XTT); assay type: cell-based; conditions: up to 10 fold higher concentrations than the FDCP-FGFR3 IC50
FGFR1, sequence (P11362 22-822, species assumed): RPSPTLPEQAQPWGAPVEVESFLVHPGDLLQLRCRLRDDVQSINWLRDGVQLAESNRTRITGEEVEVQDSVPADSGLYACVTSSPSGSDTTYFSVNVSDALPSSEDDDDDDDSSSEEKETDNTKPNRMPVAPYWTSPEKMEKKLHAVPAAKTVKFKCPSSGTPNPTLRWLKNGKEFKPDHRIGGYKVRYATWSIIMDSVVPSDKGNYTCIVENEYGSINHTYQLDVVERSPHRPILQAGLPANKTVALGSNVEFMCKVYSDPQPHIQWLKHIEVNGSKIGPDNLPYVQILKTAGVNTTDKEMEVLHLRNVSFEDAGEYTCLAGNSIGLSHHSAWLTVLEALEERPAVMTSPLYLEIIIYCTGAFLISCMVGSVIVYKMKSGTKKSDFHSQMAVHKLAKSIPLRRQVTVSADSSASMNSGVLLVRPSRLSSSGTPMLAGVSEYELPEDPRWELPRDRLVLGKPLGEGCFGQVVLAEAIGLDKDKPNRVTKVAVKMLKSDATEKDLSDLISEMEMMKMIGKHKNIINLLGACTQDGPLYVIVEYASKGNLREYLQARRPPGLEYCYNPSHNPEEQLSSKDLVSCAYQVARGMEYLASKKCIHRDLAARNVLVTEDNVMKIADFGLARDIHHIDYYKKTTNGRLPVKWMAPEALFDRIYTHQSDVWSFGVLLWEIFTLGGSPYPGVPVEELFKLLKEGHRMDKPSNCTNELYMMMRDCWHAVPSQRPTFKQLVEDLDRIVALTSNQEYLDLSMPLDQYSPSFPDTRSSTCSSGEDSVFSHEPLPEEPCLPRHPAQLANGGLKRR
Text: FIG. 1D is a graph showing proliferation of FGFR expressing FDCP cells in the presence of increasing concentrations of PRO-001 as determined by XTT analysis. Data are the average of duplicate cultures. The X axis represents concentration of PRO-001 Fab. The Y axis represents % inhibition.
Non-transformed rat chondrocyte cell line expressing PGFR3 in an inducible manner (RCJ-FGFR3) has been described previously (Rauchenberger R. et al. J. Biol. Chem. 2003; 278:38194-205). […]
as §2

FGFR3^S249C = target: T4, FGFR3^S249C (Homo sapiens, UniProt P22607, S249C); assay: FGF-independent proliferation of FDCP-FGFR3^S249C cells in vitro (XTT); assay type: cell-based; conditions: two days
T4 construct: was transfected with full length FGFR1 (FDCP-FGFR1), FGFR2 (FDCP-FGFR2), FGFR3 (FDCP-FGFR3) or FGFR3^S249C mutant cDNAs; expressed in transfected cells; host or cells: FDCP-1 mouse myeloid progenitor cell line
T4 sequence (P22607 23-806 S249C): as the sequence (P22607 23-806) above, with S227C counted along it
Protocol: FIG. 8A is a graph showing viability of FDCP-FGFR3^S249C. Cells were cultured in the presence of increasing amounts of PRO-001 or a control antibody (C) for two days. Cell proliferation was determined by XTT analysis. Data are the average of duplicate cultures.
as §1, §2

T1 sequence (P22607 23-806): as the sequence (P22607 23-806) above

B1: PRO-001: human anti-FGFR3 Fab from HuCAL library; VH-CDR3 SEQ ID NO:1, VL-CDR3 SEQ ID NO:10; VH SEQ ID NO:19, VL SEQ ID NO:28 (antibody, V domains shown)
VH: QVQLQQSGPGLVKPSQTLSLTCAISGDSVSSNSAAWNWIRQSPGRGLEWLGRTYYRSKWYNDYAVSVKSRITINPDTSKNQFSLQLNSVTPEDTAVYYCARSYYPDFDYWGQGTLVTVSS
VL: DIELTQPPSVSVAPGQTARISCSGDALGDKYASWYQQKPGQAPVLVIYDDSDRPSGIPERFSGSNSGNTATLTISGTQAEDEADYYCQSYDGPDLWVFGGGTKLTVLGQ
B1 was tested, and the Kd (FGFR3 [1]) was 1.5 nM, the “FGFR3 Domain Specificity” value (FGFR3 [2]) was 2 and the “Growth inhibition of FGF stimulated B9-FGFR3^WT cells” value (WT FGFR3; 1 μg/ml antibody) was “about 25%”. The “Growth inhibition of FGF stimulated B9-FGFR3^WT cells” value (WT FGFR3; 5 μg/ml antibody) was “more than 60%”, the “IC50, FGF-stimulated growth of B9 cells expressing FGFR3 mutant F384L” value (FGFR3-F384L) was “approximately 3 μg/ml” and the “Proliferation of FDCP-1 cells expressing FGFR1” value (FGFR1) was “unaffected”. For the same molecule, the “FGF-independent proliferation of FDCP-FGFR3^S249C in vitro” value (FGFR3^S249C) was “efficiently blocked”.
